In patent US20160251440A1 (Ablynx, published 2016):

Columns and labels:
[1] = target: T1, human IL12Rβ1, cell-expressed (human, UniProt P42701 24-662); assay: cell-based or functional assay
[2] = target: T1, human IL12Rβ1, cell-expressed; assay: cell-based or functional assay; remark: listed apart in the source
[3] = target: T1, human IL12Rβ1, cell-expressed; assay: FACS, activated human T cells
[4] = target: T2, human IL12Rβ1 extracellular domain Fc-fusion (human, UniProt P42701 24-545); assay: SPR Biacore T100, captured IL12Rβ1-Fc
T2 construct: extracellular domain; bought; also called IL12Rβ1-Fc; hIL-12Rβ1-Fc; not shown: Fc part, captured by anti-hIgG

[5] = target: T2, human IL12Rβ1 extracellular domain …; assay: competition ELISA, coated IL-12 + IL12Rβ1-Fc
[6] = target: T2, human IL12Rβ1 extracellular domain …; assay: competition ELISA, coated IL-23 + IL12Rβ1-Fc
[7] = target: T2, human IL12Rβ1 extracellular domain …; assay: competition ELISA, coated IL-12 + 2 nM IL12Rβ1-Fc
[8] = target: T2, human IL12Rβ1 extracellular domain …; assay: competition ELISA, coated IL-23 + 2 nM IL12Rβ1-Fc
[9] = target: T3, human CD4, cell-expressed (human, UniProt P01730 26-458); assay: flow cytometry on MOLM-13 cells (CD4, no IL12R or IL23R), lower left panel
T3 construct: whole, on cells

[10] = target: T4, human IL-3Rα (CD123), cell-expressed (human, UniProt P26951 19-378); assay: FACS, THP-1 cells
T4 construct: whole, on cells; also called IL-3Ra; Hek-IL-3Rα

[11] = target: T4, human IL-3Rα (CD123), cell-expressed; assay: FACS, MOLM-13 cells
[12] = target: T4, human IL-3Rα (CD123), cell-expressed; assay: FACS, HEK293T-IL-3Rα cells
[13] = target: T5, recombinant IL-3Rα ectodomain (human, UniProt P26951 19-305); assay: SPR ProteOn, immobilised IL-3Rα ectodomain
T5 construct: extracellular domain; also called recombinant IL-3Ra; biotinylated-IL-3Rα ectodomain
T5 sequence (looked up): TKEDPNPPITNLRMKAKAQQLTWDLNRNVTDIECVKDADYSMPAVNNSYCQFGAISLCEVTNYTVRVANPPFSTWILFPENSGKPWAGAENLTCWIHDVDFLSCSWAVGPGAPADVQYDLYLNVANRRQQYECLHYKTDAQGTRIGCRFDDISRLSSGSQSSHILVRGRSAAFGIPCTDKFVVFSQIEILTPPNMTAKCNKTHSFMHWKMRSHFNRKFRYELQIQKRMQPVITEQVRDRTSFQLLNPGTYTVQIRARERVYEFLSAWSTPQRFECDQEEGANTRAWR

[14] = target: T5, recombinant IL-3Rα ectodomain; assay: competition ELISA, coated mAb 7G3 + biotinylated IL-3Rα ectodomain
[15] = target: T5, recombinant IL-3Rα ectodomain; assay: ELISA on recombinant IL-3Ra ectodomain (lower right panel)
[16] = target: T6, human CXCR4 (on cells, viral lipoparticles or membrane extracts) (human, UniProt P61073 1-352); assay: ELISA on coated CXCR4 viral lipoparticles (both upper panels)
T6 construct: whole, on cells; also called hCXCR4 VLPs; CXCR4-lip

[17] = target: T4, human IL-3Rα (CD123), cell-expressed; assay: flow cytometry on Molm-13 cells; EC50(M) printed in the legend box beside the curves
[18] = target: T5, recombinant IL-3Rα ectodomain; assay: ELISA on recombinant IL-3Ra ectodomain (panel 'IL-3Ra ELISA', lower left)
[19] = target: T6, human CXCR4 (on cells, viral …); assay: flow cytometry at one concentration on Jurkat E6-1 cells (CXCR4+/CD123-), anti-FLAG detection
[20] = target: T7, CXCR4 and CD4 co-expressed on cells (MOLM-13, THP-1, MT-4, PBMC; Jurkat CD4 low) (human, UniProt P61073 1-352; P01730 26-458); assay: FACS, THP-1 cells
T7 construct: whole, on cells; two separate membrane proteins on one cell, not a complex; target of bispecifics; also called CXCR4+/CD4+ cells

[21] = target: T7, CXCR4 and CD4 co-expressed on cells …; assay: cell-based or functional assay
[22] = target: T6, human CXCR4 (on cells, viral …); assay: cell-based or functional assay
[23] = target: T7, CXCR4 and CD4 co-expressed on cells …; assay: cell-based or functional assay; remark: listed apart in the source
[24] = target: T7, CXCR4 and CD4 co-expressed on cells …; assay: cell-based or functional assay; remark: listed apart in the source
[25] = target: T7, CXCR4 and CD4 co-expressed on cells …; assay: cell-based or functional assay; remark: listed apart in the source
[26] = target: T7, CXCR4 and CD4 co-expressed on cells …; assay: FACS, MOLM-13 cells (CXCR4+/CD4+)
[27] = target: T7, CXCR4 and CD4 co-expressed on cells …; assay: FACS, Jurkat E6-1 cells (CXCR4+/CD4 low)

T6 sequence (P61073 whole entry): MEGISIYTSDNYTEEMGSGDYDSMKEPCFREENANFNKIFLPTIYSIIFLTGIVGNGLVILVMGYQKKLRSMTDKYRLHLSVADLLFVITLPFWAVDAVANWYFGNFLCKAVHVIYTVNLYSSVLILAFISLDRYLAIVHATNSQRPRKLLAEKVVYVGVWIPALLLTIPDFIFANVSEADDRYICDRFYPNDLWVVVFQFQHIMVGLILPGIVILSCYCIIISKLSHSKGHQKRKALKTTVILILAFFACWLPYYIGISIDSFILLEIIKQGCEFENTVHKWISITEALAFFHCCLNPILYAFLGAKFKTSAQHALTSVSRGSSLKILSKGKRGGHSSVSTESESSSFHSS
T7 sequence (P61073 whole entry, chain 1 of 2, other chains not shown): as the sequence (P61073 whole entry) above

B1: IL12Rb1#30: 148C09 (VHH)
VHH: EVQLVESGGGLVQTGGSLRLSCAASGRTPRLVAMGWFRQTPGKEREFVGEIILSKGFTYYADSVKGRFTISRVNAKNTITMYLQMNSLKSEDTAVYYCAGRQNWSGSPARTNEYEYWGQGTLVTVSS
notes: also called IL12Rβ1#30; LG148C09
For B1, the “IC50, IL-12 induced IFNγ release, PBMC D840” value [1] was 17 nM, the “IC50, IL-12 induced IFNγ release, T cells D839” value [1] was 140 nM and the “IC50, IL-17 release, PBMC D840” value [2] was 35.5 nM. For the same binder, the EC50 [3] was 1.3 nM, the Kd [4] was 3.3 nM and the koff [4] was 0.0015 s⁻¹. For the same binder, the kon [4] was 450000 M⁻¹ s⁻¹, the IC50 [5] was 3.7 nM and the IC50 [6] was 1.5 nM. The IC50 [7] was 3.7 nM, the IC50 [8] was 1.5 nM and the binding result [9] was “no binding (tested: 1E-6 M)”.

B2: 57A07 (VHH)
VHH: EVQLVESGGGLVQAGGSLRLSCAASGSIFSGNVMGWYRRQAPGKEREWVAAIASGGSIYYRDSVKGRFTISRDNAKNTVYLQMNSLKPEDTAVYYCNSHPPTLPYWGLGTQVTVSS
notes: also called CD123#1; A0110057A07
Work on B2 yielded an EC50 [10] of 1.3 nM, an EC50 [11] of 0.66 nM and an EC50 [12] of 0.24 nM. It also gave a Kd [13] of 0.783 nM, a koff [13] of 0.00081 s⁻¹ and a kon [13] of 1e+06 M⁻¹ s⁻¹. The IC50 [14] was 1.2 nM, the “EC50 (read off the curve)” value [15] was about 0.5 nM and the binding result [16] was “no binding (tested: about 1E-5 M)”. The EC50 [17] was 0.67 nM.

B3: 55A01 (VHH)
VHH: EVQLVESGGGSVQAGGSLRLSCTTSGRALNMYVMGWFRQAPGNEREFVAATSSSGGSTSYPDSVKGRFTISRDNAKNTVYLQMNSLKPEDTAAYRCAASPYVSTPTMNILEEYRYWGLGTQVTVSS
notes: also called CD123#2; A0110055A01
With B3 the EC50 [10] was 11 nM, the EC50 [11] was 8.2 nM and the EC50 [12] was 1.1 nM. For the same binder, the Kd [13] was 17.1 nM, the koff [13] was 0.0014 s⁻¹ and the kon [13] was 84000 M⁻¹ s⁻¹. The IC50 [14] was 40 nM, the “EC50 (read off the curve)” value [18] was about 1 nM and the EC50 [17] was 13 nM. B3: no binding (tested: 4.6 nM) [19].

B4: 281F12-35GS-03F11 (bispecific antibody)
chain: EVQLVESGGGLVQAGDSLRLSCAASGRAFSRYAMGWFRQAPGKEREFVAAIGWGPSKTNYADSVKGRFTISRDNAKNTVYLQMNTLKPEDTAVYSCAAKFVNTDSTWSRSEMYTYWGQGTQVTVSSGGGGSGGGGSGGGGSGGGGSGGGGSGGGGSGGGGSEVQLVESGGGSVQPGGSLTLSCGTSGRTFNVMGWFRQAPGKEREFVAAVRWSSTGIYYTQYADSVKSRFTISRDNAKNTVYLEMNSLKPEDTAVYYCAADTYNSNPARWDGYDFRGQGTQVTVSS
notes: also called CXCR4#2-35GS-CD4#8; CXCR4#2-CD4#8
In the case of B4, the EC50 [20] is reported as 0.67 nM, the “enhancement vs monovalent CD4#8, HIV-1 BaL, PBMC” value [21] is reported as about 200 fold and the “Fold increase vs CXCR4#2, Jurkat E6-1” value [22] is reported as 0.8 fold. The “Fold increase vs CXCR4#2, MOLM-13” value [22] was 146 fold, the “IC50, SDF-1 chemotaxis, Jurkat E6-1” value [22] was 110 nM and the “IC50, SDF-1 chemotaxis, MOLM-13” value [22] was 0.59 nM. The “IC50, HIV-1 BaL (R5), PBMC” value [23] was 2.46 nM, the “IC50, HIV-1 NL4.3 (X4), MT-4” value [23] was 0.24 nM and the “IC50, HIV-1 NL4.3 (X4), PBMC” value [23] was 0.37 nM. The “IC50, HIV-1 NL4.3 (X4), U87” value [23] was 2.67 nM, the “IC50, HIV-1 NL4.3 wt, MT-4” value [24] was 0.187 nM and the “IC50, NL4.3 2G12 res., MT-4” value [24] was 0.11 nM. The “IC50, NL4.3 AMD-3100 res., MT-4” value [24] was 1.13 nM, the “IC50, NL4.3 CD4#8 res., MT-4” value [24] was 0.31 nM and the “IC50, NL4.3 CXCL-12res., MT-4” value [24] was 0.433 nM. For the same binder, the “IC50, NL4.3 CXCR4#2 res, MT-4” value [24] was 1.4 nM, the “IC50, HIV-1 HE, MT-4” value [25] was 0.0906 nM and the “IC50, HIV-1 NL4.3, MT-4” value [25] was 0.187 nM. For the same binder, the “IC50, HIV-2 ROD, MT-4” value [25] was 0.3 nM, the EC50 [26] was 1.1 nM and the EC50 [27] was 11 nM.
